Results as given in paper PMC5689134, “Detailed Analysis of Insulin Absorption Variability and the Tissue Response to Continuous Subcutaneous Insulin Infusion Catheter Implantation in Swine” (Diabetes Technology & Therapeutics, 2017).

Test: Insulin lispro absorption PK after 5-U bolus through CSII catheters in swine
Type: in vivo
Conditions: for tmax (time-to-peak) / AUC60 (0-60 min after bolus) / Cmax (maximal plasma insulin level) / AUC (0-160 min after bolus, baseline subtracted): mean ± SD; for AUC60 (0-60 min after bolus) / Cmax (maximal plasma insulin level) / AUC (0-160 min after bolus, baseline subtracted): plasma ELISA
Excerpt: We performed an observational study in six swine to evaluate the PK of insulin lispro (U-100 Humalog; Eli Lilly) infused through CSII catheters implanted for 5 days. Six commercial CSII catheters (CCs) and six investigational CSII catheters (ICs) were inserted into the subcutaneous tissue of each swine. Lispro insulin and saline were infused through the CCs and ICs for 5 days using battery powered insulin pumps and the same basal/bolus pattern of delivery. Additional CCs and ICs were filled with saline and capped (Supplementary Table S1; Supplementary Data are available online at www.liebertpub.com/dia). Insulin PK (Cmax, tmax, AUC, AUC60) following a 5-U bolus were evaluated on days 1, 3, and 5. The tissue surrounding the 72 CSII was excised and pathologically analyzed to elucidate the relationship between the PK of insulin absorption and the inflammatory tissue response to trauma and the CSII cannula.
The study was performed in six nondiabetic ambulatory female swine (68.5 ± 3.6 kg). The protocol was approved by the Institutional Animal Care & Use Committee of Thomas Jefferson University. […] The CVC ports were flushed every 1–3 days using a Huber needle and low-dose heparin solution. One week later, each swine was given general anesthesia and six CCs (Inset™; UnoMedical, Denmark) and six ICs were inserted into the subcutaneous tissue of the abdomen using an aseptic technique according to the manufacturer's instructions. In total, 72 CSII were implanted in six swine.
Two CCs and two ICs were connected to insulin pumps (OneTouch Ping; Animas Corporation, West Chester, PA) containing rapid acting lispro insulin. Two CCs and two ICs were connected to insulin pumps containing saline solution. […] CSII were secured with Tegaderm™ adhesive bandages and the eight insulin pumps were secured within the pockets of a custom vest (Lomir Biomedical, Inc., Supplementary Fig. S2). Insulin lispro was continuously infused through the four CSII catheters at a low basal rate (0.2 U/h/catheter = 0.8 U/h). Insulin and saline were infused using the same basal/bolus pattern throughout the 5-day study.
PK studies were performed on days 1, 3, and 5 after CSII insertion. On day 1, animals recovered from general anesthesia for ∼2 h before starting the PK study. Blood was sampled from a CVC every 10 min for ∼2 h, followed by every 15 min for 1 h before administering the second bolus and repeating the sampling schedule. When blood sample acquisition from a CVC was not possible, samples were obtained from the alternate CVC or occasionally omitted. The swine were able to stand up, lie down, and consume food (apples, biscuits) and water during the PK study. The concentration of blood glucose (BG) was measured in duplicate using the YSI analyzer. Samples were centrifuged to plasma and stored at −80°C for subsequent insulin assay. A stable baseline was established for ∼30 min (three to five BG values).
We then infused a 5-U bolus of insulin into a CC or an IC in a randomized order. The concentration of BG was maintained between 100 and 160 mg/dL by adjusting an intravenous infusion of 20% dextrose every 5–10 min for 3 h. A second baseline was then established for ∼30 min to ensure that BG levels have returned to baseline values after the morning insulin bolus, followed by a 5-U bolus of insulin infused into the alternate CSII catheter. The afternoon PK study ended ∼3 h later. Thus, two PK studies were performed on days 1, 3, and 5 in the same swine using the same CC and IC each day.
The concentration of lispro insulin was measured in plasma samples by PreClinOmics, Inc. (Indianapolis, IN) using a porcine insulin ELISA and an Iso-insulin ELISA (Mercodia AB, Uppsala, Sweden). The lispro insulin concentration was calculated by subtracting the porcine insulin from the total insulin concentration. […]

[1] = day 5, 5-U bolus via CC, Mean±SD of swine 2-6 (Table S4), SD
[2] = day 5, 5-U bolus via CC, individual animal: swine 2
[3] = day 5, 5-U bolus via CC, individual animal: swine 3
[4] = day 5, 5-U bolus via CC, individual animal: swine 4
[5] = day 5, 5-U bolus via CC, individual animal: swine 5
[6] = day 5, 5-U bolus via CC, individual animal: swine 6
[7] = day 5, 5-U bolus via IC (pump occlusion alarm during bolus), individual animal: swine 3
[8] = day 5, 5-U bolus via IC (pump occlusion alarm during bolus), individual animal: swine 4
[9] = day 5, 5-U bolus via IC (pump occlusion alarm during bolus), individual animal: swine 5
[10] = day 5, 5-U bolus via IC, Mean±SD of swine 1-6 (Table S4), SD
[11] = day 5, 5-U bolus via IC, individual animal: swine 1
[12] = day 5, 5-U bolus via IC, individual animal: swine 2
[13] = day 5, 5-U bolus via IC, individual animal: swine 6
[14] = swine, 5-U s.c. bolus via CC, day 1, n = 5, SD
[15] = swine, 5-U s.c. bolus via CC, day 3, n = 5, SD
[16] = swine, 5-U s.c. bolus via CC, day 5, n = 5, SD
[17] = swine, 5-U s.c. bolus via IC, day 1, n = 6, SD
[18] = swine, 5-U s.c. bolus via IC, day 3, n = 6, SD
[19] = swine, 5-U s.c. bolus via IC, day 5, n = 6, SD

Substance: insulin lispro
- Cmax [1]: 114.66±30 mUL
- tmax [1]: 12.00 ± 4 min
- Cmax [2]: 113.43 mUL
- tmax [2]: 10 min
- AUC [3]: 119.45 mULh
- Cmax [3]: 116.16 mUL
- tmax [3]: 20 min
- AUC [4]: 57.25 mULh
- Cmax [4]: 156.62 mUL
- tmax [4]: 10 min
- AUC [5]: 48.26 mULh
- Cmax [5]: 115.52 mUL
- tmax [5]: 10 min
- AUC [6]: 54.47 mULh
- Cmax [6]: 71.56 mUL
- tmax [6]: 10 min
- AUC [7]: 54.83 mULh
- Cmax [7]: 85.06 mUL
- tmax [7]: 30 min
- AUC [8]: 100.49 mULh
- Cmax [8]: 269.32 mUL
- tmax [8]: 20 min
- AUC [9]: 57.08 mULh
- Cmax [9]: 131.09 mUL
- tmax [9]: 10 min
- AUC [10]: 40.96±38 mULh
- Cmax [10]: 105.08±88 mUL
- tmax [10]: 33.33 ± 19 min
- AUC [11]: 28.30 mULh
- Cmax [11]: 68.17 mUL
- tmax [11]: 60 min
- AUC [12]: 1.77 mULh
- Cmax [12]: 47.10 mUL
- tmax [12]: 50 min
- AUC [13]: 3.27 mULh
- Cmax [13]: 29.76 mUL
- tmax [13]: 30 min
- Insulin absorption, range between animals (swine, 5-U bolus via IC, day 3, range over six ICs): 9–132 mU/L*h
- tmax (time-to-peak) [14]: 35.0 ± 17.3 min
- AUC60 (0-60 min after bolus) [14]: 50.9 ± 12.9 mU/L·h
- Cmax (maximal plasma insulin level) [14]: 90.7 ± 26.8 mU/L
- tmax (time-to-peak) [15]: 20.0 ± 12.2 min
- AUC60 (0-60 min after bolus) [15]: 47.0 ± 25.6 mU/L·h
- AUC (0-160 min after bolus, baseline subtracted) [15]: 63.1 ± 22.8 mU/L*h
- Cmax (maximal plasma insulin level) [15]: 73.9 ± 41.0 mU/L
- AUC60 (0-60 min after bolus) [16]: 54.9 ± 20.8 mU/L·h
- AUC (0-160 min after bolus, baseline subtracted) [16]: 71.1 ± 29.4 mU/L*h
- Cmax (maximal plasma insulin level) [16]: 114.7 ± 30.1 mU/L
- tmax (time-to-peak) [17]: 43.3 ± 28.8 min
- AUC60 (0-60 min after bolus) [17]: 44.3 ± 23.2 mU/L·h
- Cmax (maximal plasma insulin level) [17]: 120.0 ± 59.3 mU/L
- tmax (time-to-peak) [18]: 20.0 ± 6.3 min
- AUC60 (0-60 min after bolus) [18]: 42.7 ± 40.0 mU/L·h
- AUC (0-160 min after bolus, baseline subtracted) [18]: 63.1 ± 51.8 mU/L*h
- Cmax (maximal plasma insulin level) [18]: 115.0 ± 86.2 mU/L
- AUC60 (0-60 min after bolus) [19]: 29.0 ± 31.3 mU/L·h
- AUC (0-160 min after bolus, baseline subtracted) [19]: 40.1 ± 37.6 mU/L*h
- Cmax (maximal plasma insulin level) [19]: 105.1 ± 87.7 mU/L
- AUC (0-160 min after bolus, baseline subtracted) (swine, 5-U s.c. bolus via commercial CSII catheter (CC), day 1 of wear-time, n = 5 (AUC of swine 6 not calculable), SD): 82.7 ± 37.6 mU/L*h
- AUC (0-160 min after bolus, baseline subtracted) (swine, 5-U s.c. bolus via investigational CSII catheter (IC), day 1, n = 6, SD): 68.5 ± 36.0 mU/L*h
